This note sets out measurements from paper PMC11706664, “Structure of WzxE the lipid III flippase for Enterobacterial Common Antigen polysaccharide” (Open Biology, 2025).

Assay [1] addresses T1, WzxE, the lipid III flippase from Escherichia coli (E. coli K-12 MG1655, UniProt P0AAA7, V inserted between M1 and S2 (worked out from the letters of primer WzxE-F, …)).
T1 construct: His10 removed with TEV protease; Residues of the XhoI site and of the TEV site probably stay at the C-terminus after cleavage (surmise); The same construct purified in DDM only was used in the ELISA; also called chain A; source: E. coli C43(DE3), purified from membranes (DM extraction with DDM/OGNG purification, or DDM only; nickel NTA, TEV cleavage, reverse IMAC, SEC); not shown: His10, …
As to the kind of experiment: crystal structure; WzxE-Nb10-Nb7 complex (Nb7 added to pre-formed WzxE-Nb10), with und-PP-GlcNAc or nerol-PP-GlcNAc added, lipidic cubic phase, 20°C; outward-facing conformation (PDB 9G9M, 9G9O). The note with it: both partners purified.

Assay [2] deals with T2, WzxE-Nb10 complex (WzxE held on immobilised biotinylated Nb10-strep II) (Escherichia coli K-12 MG1655 (WzxE), V inserted between M1 and S2 (worked out from the letters of primer WzxE-F, …, biotin (EZ-link Sulfo-NHS-LC Biotin kit))).
T2 construct: WzxE, E. coli K-12 MG1655, as the chain of m1 (purified in DDM); as the chain of m4 (Nb10 with strep II tag); A complex of a natural membrane protein and a nanobody, so that no single origin fits; not shown: His10, C-terminal, cleaved; strep II, C-terminal, kept
T2 chain: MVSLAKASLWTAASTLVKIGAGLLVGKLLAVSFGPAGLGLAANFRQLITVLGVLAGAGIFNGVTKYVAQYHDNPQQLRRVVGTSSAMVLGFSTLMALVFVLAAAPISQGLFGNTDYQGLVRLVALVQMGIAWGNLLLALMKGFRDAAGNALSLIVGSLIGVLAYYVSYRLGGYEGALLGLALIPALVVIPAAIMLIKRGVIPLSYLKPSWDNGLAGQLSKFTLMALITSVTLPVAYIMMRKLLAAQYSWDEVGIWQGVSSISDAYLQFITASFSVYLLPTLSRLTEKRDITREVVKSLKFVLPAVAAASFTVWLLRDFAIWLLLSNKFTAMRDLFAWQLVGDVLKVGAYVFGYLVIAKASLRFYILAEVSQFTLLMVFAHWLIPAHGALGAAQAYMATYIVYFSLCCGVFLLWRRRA
The experiment in a line: ELISA; nanobodies screened on the WzxE-Nb10 complex held on Streptactin-coated plates by biotinylated Nb10-strep II; anti-His HRP antibody, read at 410 nm; room temperature; the step of adding the nanobodies is not described.

The target in assay [3] is T1, WzxE, the lipid III flippase from …. As to the kind of experiment: SEC; WzxE incubated with nanobody at molar ratio 1:1.2 WzxE:Nb for 2 h at 4°C; co-elution on size exclusion chromatography in buffer B (25 mM Tris pH 7.5, 150 mM NaCl, 5% glycerol, OGNG, DDM). The note with it: both partners purified.
Assay [4] shares this target. The experiment in a line: ELISA; biotinylated Nb10-strep II (1.62 µM/well) bound on Streptactin-coated plates; WzxE purified in DDM added at 2.78 µM for 1 h; room temperature, 25 mM Tris pH 7.5, 150 mM NaCl, 0.02% DDM, 0.1% BSA, 0.05% Tween-20. The note with it: both partners purified.

B1: nanobody Nb7 (CA12482) (VHH)
VHH: QVQLVESGGGLVQAGDSLTLSCAASGRTAYRYGMGWFRQHPGKEREFVASIWWTGTTTYYADSVKGRFTISRDDVKNMVYLQMNSLKPEDTAVYYCAAKFYGGNSKRPGDYAYWGQGTQVTVSS
notes: Raised by llama immunization with WzxE (Nanobody4Instruct), in plasmid pMESy4; In the ELISA it was probably detected by the anti-His HRP antibody (surmise; the methods leave out the step); also called chain C; source: E. coli WK6 (su-), purified (His-Trap, SEC)
As for B1, the binding result in assay [1] and in assay [2] was “binds” each time.

B2: nanobody Nb10 (CA12485) (VHH)
VHH: QVQLVESGGGLVQAGGSLGLSCAASGRTFSNYVMAWFRQAPGKEREFVARISESRGTTDYADSVKGRFTISRDNAKNTIYLQMNSLNPGDTAVYSCAATLPAWTGIIGGRRPGNYPYWGQGTQVTVSS
notes: Raised by llama immunization with WzxE (Nanobody4Instruct), in plasmid pMESy4; also called chain B; source: E. coli WK6 (su-), purified (His-Trap, SEC)
As to B2, the binding result in assay [3] was “binds”.

B3: biotinylated Nb10-Strep II tagged protein (VHH)
VHH: QVQLVESGGGLVQAGGSLGLSCAASGRTFSNYVMAWFRQAPGKEREFVARISESRGTTDYADSVKGRFTISRDNAKNTIYLQMNSLNPGDTAVYSCAATLPAWTGIIGGRRPGNYPYWGQGTQVTVSS
notes: as the chain of m2 (Nb10), with the C-terminal hexa-histidine tag exchanged for a strep II tag; source: E. coli WK6 (su-), purified (Strep-tactin beads, SEC), biotinylated; not shown: strep II, C-terminal, kept
For the molecule B3, the binding result in assay [4] was “binds”.
